Results on 4 molecules are retold here after publication PMC5980108, “ARE-mediated decay controls gene expression and cellular metabolism upon oxygen variations”.

This series deals with T1, dTIS11-6His (UniProt P47980 1-436).
T1 sequence: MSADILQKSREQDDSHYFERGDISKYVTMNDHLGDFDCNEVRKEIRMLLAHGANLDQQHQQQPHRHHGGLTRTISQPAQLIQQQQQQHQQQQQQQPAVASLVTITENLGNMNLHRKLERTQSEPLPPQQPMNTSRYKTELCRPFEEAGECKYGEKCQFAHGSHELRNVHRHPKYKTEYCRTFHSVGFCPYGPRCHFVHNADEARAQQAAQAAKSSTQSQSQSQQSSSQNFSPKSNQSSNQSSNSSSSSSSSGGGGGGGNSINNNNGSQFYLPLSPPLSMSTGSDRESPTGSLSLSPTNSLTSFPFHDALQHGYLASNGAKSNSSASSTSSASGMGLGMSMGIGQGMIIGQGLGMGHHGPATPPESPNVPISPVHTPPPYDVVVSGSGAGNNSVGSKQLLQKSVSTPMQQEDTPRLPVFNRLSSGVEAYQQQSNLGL
Briefly: ITC; 5 uM ZnCl2; ITC: 20 mM MES pH 6.5, 300 mM NaCl, 5 uM ZnCl2, 0.5 mM DTT, 10 C; EMSA: 20 mM Tris pH 7.8, 3 mM MgCl2, 40 mM KCl, 2 mM DTT, 5% glycerol, gel at 4 C. Particulars: protein: recombinant; tags: C-terminal 6His. (In ITC the heat of successive injections is recorded.)

Turning to GAUUAUUUAUAAUUAUUUAUUUAAAGAUCUAUUUAUUC (ssRNA) [CecA1 ARE], the Kd (commonly the free concentration of one partner at which half of the binding sites on the other are occupied at equilibrium, for simple one-to-one binding) stood at 580 nM.
For the molecule CGAUUUAUUUAUUUAGA (ssRNA) [TNF ARE], the Kd turned out to be 895 nM.
Take AUUCUAUUGUUUCUUCUUAUAUAUUGUUAUUCUUCACAUAAUGUU (ssRNA) [Scrambled ImpL3 ARE (ITC)]: the binding result was “no binding”.
In the case of UGUUUAUUUUUAGUCCACCUCUCAAUUUAUUUAUUAUUUUUAUGA (ssRNA) [ImpL3 ARE (ITC)], the Kd worked out at 2400 nM.
